Laboratory results from article PMC3500689.

How the values were obtained:
[1] = target: GluA2 flop splice variant (UniProt P19491)
[2] = target: GluA2 flip splice variant (R/G edited) (UniProt P19491)
[3] = target: GluA2 flip splice variant (R/G edited) (UniProt P19491); remark: listed apart in the source
[4] = target: GluA2, native in CA1 pyramidal cells (rat (endogenous in hippocampal slice cultures)) (UniProt P19491)

GluA1 flip splice variant (from UniProt P19490-2 19-907) (receptor)
rectification index of patches from HEK293 cells expressing A1i/A2o and γ-8 (threshold by which patches were chosen) [1]: > 0.7
rectification index (g+10 / g-40) of I/V relationships with 100 uM intracellular spermine, HEK293T cells cotransfected at an A1/A2 ratio of 4:1; marker for heteromerization competence [2]: 0.1

GluA1 flop splice variant (from UniProt P19490 19-907) (receptor)
rectification index of patches from HEK293 cells expressing A1o/A2i and γ-8 (threshold by which patches were chosen) [3]: > 0.7
rectification index (g+10 / g-40) of I/V relationships with 100 uM intracellular spermine, HEK293T cells cotransfected at an A1/A2 ratio of 4:1; marker for heteromerization competence [2]: 0.7

GluA1, native in CA1 pyramidal cells (from UniProt P19490 19-907) (receptor)
percentage block of the peak glutamate current by 100 μM philanthotoxin 74 (selective for A1/A2 heteromers), CA1 patches, control slices, mean [4]: 95%
percentage block of the peak glutamate current by 100 μM philanthotoxin 74 (selective for A1/A2 heteromers), CA1 patches, slices after 48 hr TTX, mean [4]: 93.9%
